Reference: patent US20030099654

What was measured:
125I-prothrombin [1] = system: 125I-prothrombin
125I-prothrombin [2] = biological target: 125I-prothrombin; remark: listed apart in the source

Row | Molecule | prothrombin cleavage assay (125I-prothrombin, 10% SDS-PAGE, autoradiography); positive control (125I-prothrombin [1]) | one-stage clotting assay (PCA) in coagulation factor-deficient human plasmas (125I-prothrombin [2]) | prothrombin cleavage assay (125I-prothrombin, 10% SDS-PAGE, autoradiography); purified mfgl2 fusion protein (125I-prothrombin [2])
1 | Human Factor Xa | Addition of human factor X in the presence of calcium and factor V produced cleavage products corresponding to known derivatives of prothrombin |  | 
2 | mfgl2 fusion protein (murine fgl2 with six histidine residues followed by an enterokinase site at the N-terminus) (protein) VEEHNLTEGLEDASAQAACPARLEGSGRCEGSQCPFQLTLPTLTIQLPRQLGSMEEVLKEVRTLKEAVDSLKKSCQDCKLQADDHRDPGGNGGNGAETAEDSRVQELESQVNKLSSELKNAKDQIQGLQGRLETLHLVNMNNIENYVDNKVANLTVVVNSLDGKCSKCPSQEHMQSQPVQHLIYKDCSDHYVLGRRSSGAYRVTPDHRNSSFEVYCDMETMGGGWTVLQARLDGSTNFTREWKDYKAGFGNLEREFWLGNDKIHLLTKSKEMILRIDLEDFNGLTLYALYDQFYVANEFLKYRLHIGNYNGTAGDALRFSRHYNHDLRFFTTPDRDNDRYPSGNCGLYYSSGWWFDSCLSANLNGKYYHQKYKGVRNGIFWGTWPGINQAQPGGYKSSFKQAKMMIRPKNFKP |  | The PCA expressed by recombinant virus infected cells was independent of all factors except 11 (prothrombin) | incubation of 1251-prothrombin with uninfected High 5 cell homogenates or purified protein exhibited no prothrombin cleavage
